Laboratory results: patent US20190202907A1 (180 THERAPEUTICS, published 2019)

T1: human ST2L (human, UniProt Q01638 19-328, limits assumed)
T1 construct: also called IL-1R4; IL-33Ra
T1 sequence (looked up): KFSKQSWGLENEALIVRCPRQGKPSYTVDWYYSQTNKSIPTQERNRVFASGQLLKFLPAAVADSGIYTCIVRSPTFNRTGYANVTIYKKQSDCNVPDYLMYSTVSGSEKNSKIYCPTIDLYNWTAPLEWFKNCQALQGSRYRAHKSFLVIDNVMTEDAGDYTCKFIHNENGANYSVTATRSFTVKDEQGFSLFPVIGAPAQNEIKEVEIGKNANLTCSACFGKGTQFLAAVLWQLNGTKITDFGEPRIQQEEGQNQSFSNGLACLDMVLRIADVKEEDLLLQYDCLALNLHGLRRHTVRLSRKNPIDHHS


Columns and labels:
human ST2L = molecular target: T1, human ST2L; experiment: affinity table; method not stated
cyno ST2L (cyno) = experiment: affinity table; method not stated

Binder	Kd (human ST2L) [nM]	koff (human ST2L) [s⁻¹]	kon (human ST2L) [M⁻¹ s⁻¹]	Kd (cyno ST2L (cyno)) [nM]	koff (cyno ST2L (cyno)) [s⁻¹]	kon (cyno ST2L (cyno)) [M⁻¹ s⁻¹]
STLM215 (antibody, from another filing, V domains shown) VH: EVQLLESGGGLVQPGGSLRLSCAASGFTFSSYDMFWVRQAPGKGLEWVSAIAGEGGRTYYADSVKGRFTISRDNSKNTLYLQMNSLRAEDTAVYYCARDPWSTEGSFFVLDYWGQGTLVTVSS VL: EIVLTQSPATLSLSPGERATLSCRASQSVDDDLAWYQQKPGQAPRLLIYDASNRATGIPARFSGSGSGTDFTLTISSLEPEDFAVYYCQQYIGAPITFGQGTKVEIK	0.025	0.000172	6.91e+06	0.01	0.000369	3.54e+07
STLM214 (antibody, from another filing, V domains shown) VH: EVQLLESGGGLVQPGGSLRLSCAASGFTFSSYDMFWVRQAPGKGLEWVSDIKGEGGRTAYADSVKGRFTISRDNSKNTLYLQMNSLRAEDTAVYYCARDPWSTEGSFFVLDYWGQGTLVTVSS VL: EIVLTQSPATLSLSPGERATLSCRASQSVDDDLAWYQQKPGQAPRLLIYDASNRATGIPARFSGSGSGTDFTLTISSLEPEDFAVYYCQQYIDAPLTFGQGTKVEIK	0.033	0.000299	9.16e+06	0.037	0.000264	7.2e+06
STLM209 (antibody, from another filing, V domains shown) VH: EVQLLESGGGLVQPGGSLRLSCAASGFTFSIYDMIWVRQAPGKGLEWVSTIRGEGGGTSYADSVKGRFTISRDNSKNTLYLQMNSLRAEDTAVYYCARDPWSTEGSFFVLDYWGQGTLVTVSS VL: EIVLTQSPATLSLSPGERATLSCRASQSVDDDLAWYQQKPGQAPRLLIYDASNRATGIPARFSGSGSGTDFTLTISSLEPEDFAVYYCQQYITAPLTFGQGTKVEIK	0.026	0.00017	6.59e+06	0.009	0.000311	3.39e+07
STLM213 (antibody, from another filing, V domains shown) VH: EVQLLESGGGLVQPGGSLRLSCAASGFTFSFYDMIWVRQAPGKGLEWVSTIRGEGGDTNYADSVKGRFTISRDNSKNTLYLQMNSLRAEDTAVYYCARDPWSTEGSFFVLDYWGQGTLVTVSS VL: EIVLTQSPATLSLSPGERATLSCRASQSVDDDLAWYQQKPGQAPRLLIYDASNRATGIPARFSGSGSGTDFTLTISSLEPEDFAVYYCQQYIDAPLTFGQGTKVEIK	0.014	0.000108	7.54e+06	0.008	0.000124	1.64e+07
STLM124 (antibody, from another filing, V domains shown) VH: EVQLLESGGGLVQPGGSLRLSCAASGFTFSIYDMIWVRQAPGKGLEWVSTIKGEGGGTYYADSVKGRFTISRDNSKNTLYLQMNSLRAEDTAVYYCARDPWSTEGSFFVLDYWGQGTLVTVSS VL: EIVLTQSPATLSLSPGERATLSCRASQSVDDDLAWYQQKPGQAPRLLIYDASNRATGIPARFSGSGSGTDFTLTISSLEPEDFAVYYCQQYITAPLTFGQGTKVEIK	0.046	0.000756	1.65e+07	0.03	0.00257	8.71e+07
STLM206 (antibody, from another filing, V domains shown) VH: EVQLLESGGGLVQPGGSLRLSCAASGFTFSIYDMIWVRQAPGKGLEWVSTIRGEGGSTYYADSVKGRFTISRDNSKNTLYLQMNSLRAEDTAVYYCARDPWSTEGSFFVLDYWGQGTLVTVSS VL: EIVLTQSPATLSLSPGERATLSCRASQSVDDDLAWYQQKPGQAPRLLIYDASNRATGIPARFSGSGSGTDFTLTISSLEPEDFAVYYCQQYITAPLTFGQGTKVEIK	0.025	0.00016	6.39e+06	0.006	0.000583	9.4e+07
STLM207 (antibody, from another filing, V domains shown) VH: EVQLLESGGGLVQPGGSLRLSCAASGFTFSSYDMIWVRQAPGKGLEWVSTIRGEGGTTAYADSVKGRFTISRDNSKNTLYLQMNSLRAEDTAVYYCARDPWSTEGSFFVLDYWGQGTLVTVSS VL: EIVLTQSPATLSLSPGERATLSCRASQSVDDDLAWYQQKPGQAPRLLIYDASNRATGIPARFSGSGSGTDFTLTISSLEPEDFAVYYCQQYITAPLTFGQGTKVEIK	0.048	0.000395	8.33e+06	0.021	0.00207	1e+08

Now from value to binder:

Kd (human ST2L) [nM]	koff (human ST2L) [s⁻¹]	kon (human ST2L) [M⁻¹ s⁻¹]	Kd (cyno ST2L (cyno)) [nM]	koff (cyno ST2L (cyno)) [s⁻¹]	kon (cyno ST2L (cyno)) [M⁻¹ s⁻¹]	Binder
0.015	0.000208	1.37e+07	0.005	0.000519	1e+08	STLM123 (antibody, from another filing, V domains shown) VH: EVQLLESGGGLVQPGGSLRLSCAASGFTFSDYAMFWVRQAPGKGLEWVSAIEGEGGETNYADSVKGRFTISRDNSKNTLYLQMNSLRAEDTAVYYCARDPWSTEGSFFVLDYWGQGTLVTVSS VL: EIVLTQSPATLSLSPGERATLSCRASQSVDDDLAWYQQKPGQAPRLLIYDASNRATGIPARFSGSGSGTDFTLTISSLEPEDFAVYYCQQYITAPLTFGQGTKVEIK
0.016	0.000158	9.63e+06	0.003	0.000264	7.89e+07	STLM216 (antibody, from another filing, V domains shown) VH: EVQLLESGGGLVQPGGSLRLSCAASGFTFSSYDMFWVRQAPGKGLEWVSDIKGEGGATNYADSVKGRFTISRDNSKNTLYLQMNSLRAEDTAVYYCARDPWSTEGSFFVLDYWGQGTLVTVSS VL: EIVLTQSPATLSLSPGERATLSCRASQSVDDDLAWYQQKPGQAPRLLIYDASNRATGIPARFSGSGSGTDFTLTISSLEPEDFAVYYCQQYIGAPITFGQGTKVEIK
0.011	6.76e-05	5.97e+06	0.005	7.02e-05	1.39e+07	STLM208 (antibody, V domains shown) VH: EVQLLESGGGLVQPGGSLRLSCAASGFTFSIYDMIWVRQAPGKGLEWVSSIRGEGGGTYYADSVKGRFTISRDNSKNTLYLQMNSLRAEDTAVYYCARDPWSTEGSFFVLDYWGQGTLVTVSS VL: EIVLTQSPATLSLSPGERATLSCRASQSVDDDLAWYQQKPGQAPRLLIYDASNRATGIPARFSGSGSGTDFTLTISSLEPEDFAVYYCQQYITAPLTFGQGTKVEIK
0.032	0.000398	1.24e+07	0.024	0.000346	1.43e+07	STLM212 (antibody, from another filing, V domains shown) VH: EVQLLESGGGLVQPGGSLRLSCAASGFTFSVYDMIWVRQAPGKGLEWVSTIRGEGGGTYYADSVKGRFTISRDNSKNTLYLQMNSLRAEDTAVYYCARDPWSTEGSFFVLDYWGQGTLVTVSS VL: EIVLTQSPATLSLSPGERATLSCRASQSVDDDLAWYQQKPGQAPRLLIYDASNRATGIPARFSGSGSGTDFTLTISSLEPEDFAVYYCQQYNDAITFGQGTKVEIK
0.019	0.000227	1.21e+07	0.009	0.000528	5.7e+07	STLM210 (antibody, from another filing, V domains shown) VH: EVQLLESGGGLVQPGGSLRLSCAASGFTFSDDAMIWVRQAPGKGLEWVSYIGGNGGTTYYADSVKGRFTISRDNSKNTLYLQMNSLRAEDTAVYYCARDPWSTEGSFFVLDYWGQGTLVTVSS VL: EIVLTQSPATLSLSPGERATLSCRASQSVDDDLAWYQQKPGQAPRLLIYDASNRATGIPARFSGSGSGTDFTLTISSLEPEDFAVYYCQQYNDAITFGQGTKVEIK
0.029	0.000483	1.7e+07	0.014	0.00139	1e+08	STLM211 (antibody, from another filing, V domains shown) VH: EVQLLESGGGLVQPGGSLRLSCAASGFTFSGYAMIWVRQAPGKGLEWVSYIEGEGGETYYADSVKGRFTISRDNSKNTLYLQMNSLRAEDTAVYYCARDPWSTEGSFFVLDYWGQGTLVTVSS VL: EIVLTQSPATLSLSPGERATLSCRASQSVDDDLAWYQQKPGQAPRLLIYDASNRATGIPARFSGSGSGTDFTLTISSLEPEDFAVYYCQQYNDAITFGQGTKVEIK
